According to article PMC9331050:

Tests used:
[1] = biological target: CreFH1, frataxin homolog from Chlamydomonas reinhardtii, mature form without the mitochondrial transit peptide (Chlamydomonas reinhardtii); assay: native MS; ESI-TOF MS of recombinant CreFH1 after 3 h with Cu2+, Fe3+, Zn2+ or water; carrier 5:95 acetonitrile:ammonium acetate/ammonia 15 mM, pH 7.0; monomer to dimer
[2] = biological target: CreFH1, frataxin homolog from Chlamydomonas reinhardtii, mature form without the mitochondrial transit peptide (Chlamydomonas reinhardtii); assay: native gel or EMSA; 8% native PAGE of purified CreFH1 incubated 1 or 3 h with water (control) or 33 uM Fe3+, Cu2+ or Zn2+; 3 ug protein a lane; Coomassie stain, densitometry; monomer to dimer

**Q.** How did the stoichiometry N [1] turn out when “CreFH1, frataxin homolog from Chlamydomonas reinhardtii, mature form without the mitochondrial transit peptide (natural protein)” was run?
**A.** 2

**Q.** And the percent of protein as dimer, with Zn2+ or Fe3+ [2]?
**A.** 22%

**Q.** And the percent of total protein as dimer, with Cu2+ [2]?
**A.** 40%

**Q.** And the stoichiometry N [2]?
**A.** 2
